The target in this experiment is human p21-activated kinase 1 (PAK1) (human) (UniProt Q13153). Kind of experiment: cell-based or functional assay.

Take “PAK1 inhibitory domain (PAK1-ID), HA-tagged PAK1 residues 83 to 149”: the inhibition of IL-1β induced expression of PGE2 in SW1353 cells (ELISA of supernatants) was greater than 50%, the inhibition of IL-1β-induced expression of MMP13 in SW1353 cells (ELISA of supernatants) amounted to 55% and the inhibition of basal MMP13 expression in non-stimulated SW1353 cells (ELISA of supernatants) was greater than 80%.
